Laboratory results as given in article PMC8130932 (PLoS Pathogens, 2021).

How the values were obtained:
[1] = target: T1, SARS-CoV-2 spike receptor-binding domain, recombinant (SARS-CoV-2, reference sequence, UniProt P0DTC2); assay: ELISA
T1 construct: also called RBD; source: bought: Sino Biologicals, baculovirus-insect cells

[2] = target: T2, SARS-CoV-2 RBD (amino acids 340-538) on MDCK-SIAT1 cells (SARS-CoV-2 (so in the source)); assay: flow cytometry on cells; conditions: one partner purified
T2 construct: also called MDCK-RBD; source: MDCK-SIAT1, stably transduced (lentiviral vector), on the cell surface

[3] = target: T3, SARS-CoV-2 NTD on MDCK-SIAT1 cells (SARS-CoV-2 (so in the source)); assay: flow cytometry on cells; conditions: one partner purified
T3 construct: also called MDCK-NTD

[4] = target: T4, SARS-CoV-2 spike S2 subunit, recombinant (SARS-CoV-2, reference sequence, UniProt P0DTC2); assay: ELISA
T4 construct: source: bought: Sino Biologicals, baculovirus-insect cells

[5] = target: SARS-CoV-2 nucleocapsid, recombinant (SARS-CoV-2, reference sequence, UniProt P0DTC9); assay: ELISA

B1: FI 1C (antibody, V domains shown)
VH: EVQLVESGGGLVKPGGSLRLSCAASGFTFSDYYMSWIRQAPGKGLEWVSYISSSGSTIYYADSVKGRFTISRDNAKNSLYLQMNSLRAEDTAVYYCARRSNRFLIAFDIWGQGTMVTVSS
VL: QSALTQPASVSGSPGQTITISCTGTSSDVGGYNYVSWYQQHPGKAPKLMIYEVSNRPSGVSNRFSGSKSGNTASLTISGLQAEDEADYYCSSYTSSSTLVVFGGGTKLTVP
notes: source: HEK293T, transfected; culture supernatant or purified
[1]
  OD450: 1.22 OD450
[2]
  binding result: binds

B2: FI 3A (antibody, V domains shown)
VH: EVQLLESGGGLIQPGGSLRLSCAASGFTVSSNYMSWVRQAPGKGLEWVSVIYSGGSTYYADSVKGRFTISRDNSKNTLYLQMNSLRAEDTAVYYCARDHVRPGMNIWGQGTMVTVSS
VL: not shown
notes: as for B1
[1]
  OD450: 1.12 OD450
[2]
  binding result: binds

B3: FM 7B (antibody, V domains shown)
VH: EVQLVQSGAEVKKPGASVKVSCKASGYTFTSYAMHWVRQAPGQRLEWMGWINTGNGNTKYSQKFQGRVTITRDTSASTAYMELSSLRSEDTAVYYCARDPTYCSSTSCYPFSWFDPWGQGTLVTVSS
VL: NFMLTQPPSVSVAPGQTARITCGGNNIGSKSVHWYQQKPGQAPVLVVYDDSDRPSGIPERFSGSNSGNTATLTISRVEAGDEADYYCQVWDSTGDHSWVFGGGTKLTVL
notes: as for B1
[1]
  OD450: 1.27 OD450
[2]
  binding result: binds

B4: FD 7C (antibody, V domains shown)
VH: QLQLQESGPGLVKPSETLSLTCTVSGGSISSYYWSWIRQPPGKGLEWIGYIYYSGSTNYNPSLKSRVTISVDTSKNQFSLKLSSVTAADTAVYYCARDYRFGELFGRFAWFDPWGQGTLVTVSS
VL: not shown
notes: as for B1
[2]
  binding result: no binding
[3]
  binding result: binds

B5: FG 7A (antibody, V domains shown)
VH: EVQLVESGGGVVQPGRSLRLSCAASGFTFSSYAMHWVRQAPGKGLEWVAVISYDGSNKYYADSVKGRFTISRDNSKNTLYLQMNSLRAEDTAVYYCARSHSGSYRASLDYWGQGTTVTVSS
VL: not shown
notes: as for B1
[4]
  OD450: 1.05 OD450

B6: FD 1D (antibody, V domains shown)
VH: EVQLVESGGGVVQPGRSLRLSCAASGFTFSSYAMHWVRQAPGKGLEWVAVISYDGSNKYYADSVKGRFTISRDNSKNTLYLQMNSLRAEDTAVYYCARAGSGSYLNWFDPWGQGTLVTVSS
VL: EIVLTQSPATLSLSPGERATLSCRASQSVSSYLAWYQQKPGQAPRLLIYDASNRATGIPARFSGSGSGTDFTLTISSLEPEDFAVYYCQQRSNWPITFGQGTRLEIK
notes: as for B1
[4]
  OD450: 1.06 OD450
[2]
  binding result: no binding
[3]
  binding result: no binding

B7: FD 11D (antibody, V domains shown)
VH: EVQLVESGGGVVQPGRSLRLSCAASGFTFSSYGMHWVRQAPGKGLEWVAVISYDGSNKYYADSVKGRFTISRDNSKNTLYLQMNSLRAEDTAVYYCAKEGAGSGWYRHHKPGYYFDYWGQGTLVTVSS
VL: not shown
notes: as for B1
[2]
  binding result: no binding

B8: FN 12A (antibody, V domains shown)
VH: QVQLVQSGAEVKKPGSSVKVSCKASGGTFSSYAISWVRQAPGQGLEWMGRIIPILGIANYAQKFQGRVTITADKSTSTAYMELSSLRSEDTAVYYCARSGCSSTSCPSNLYYYYYGMDVWGQGTTVTVSS
VL: QSVLTQPPSVSAAPGQKVTISCSGSSSNIGNNYVSWYQQLPGTAPKLLIYDNNKRPSGIPDRFSGSKSGTSATLGITGLQTGDEADYYCGTWDSSLSALVFGGGTKLTVL
notes: as for B1
[1]
  OD450: 1.33 OD450
[2]
  binding result: binds
[3]
  binding result: no binding

B9: FD 11A (antibody, V domains shown)
VH: EVQLVESGGGVVQPGRSLRLSCAASGFTFSSYGMHWVRQAPGKGLEWVAVIWYDGSNKYYADSVKGRFTISRDNSKNTLYLQMNSLRAEDTAVYYCAKGPDILTGYYNYYYYGMDVWGQGTMVTVSS
VL: QSVLTQPPSVSGAPGQRVTISCTGSSSNIGAGYDVHWYQQLPGTAPKLLIYGNSNRPSGVPDRFSGSKSGTSASLAITGLQAEDEADYYCQSYDSSLSGFYVVFGGGTKLTVL
notes: as for B1
[1]
  OD450: 1.17 OD450
[2]
  binding result: binds

B10: FD 11C (antibody, V domains shown)
VH: EVQLLESGPGLVKPSETLSLTCTVSGGSISSSSYYWGWIRQPPGKGLEWIGSIYYSGSTYYNPSLKSRVTISVDTSKNQFSLKLSSVTAADTAVYYCAREYYYGSETKKYYYYYGMDVWGQGTTVTVSS
VL: not shown
notes: as for B1
[2]
  binding result: no binding
[3]
  binding result: no binding

B11: EY 6A (antibody, V domains shown)
VH: EVQLVESGGGVVQPGRSLRLSCAASAFTFSSYDMHWVRQAPGKGLEWVAVISYDGSNKYYADSVKGRFTISRDNSKNTLYLQMNSLRAEDTAVYYCAKDGGKLWVYYFDYWGQGTLVTVSS
VL: not shown
notes: as for B1
[1]
  OD450: 1.18 OD450
[2]
  binding result: binds

B12: FD 5D (antibody, V domains shown)
VH: EVQLVESGGGLVQPGGSLRLSCAASGFTFSSYSMNWVRQAPGKGLEWVSYISSSSSTIYYADPVKGRFTISRDNAKNSLYLQMNSLRAEDTAVYYCASPGGITAAGTSVLFGYYGMDVWGQGTMVTVSS
VL: not shown
notes: as for B1
[1]
  OD450: 1.19 OD450
[2]
  binding result: binds

B13: FD 5E (antibody, V domains shown)
VH: EVQLVESGGVVVQPGGSLRLSCAASGFTFDDYAMHWVRQAPGKGLEWVSLISWDGGSTYYADSVKGRFTISRDNSKNSLYLQMNSLRAEDTALYYCAKDSVRFRYYYGMDVWGQGTTVTVSS
VL: EIVLTQSPATLSLSPGERATLSCRASQSVSSYLAWYQQKPGQAPRLLIYDASNRATGIPARFSGSGSGTDFTLTISSLEPEDFAVYYCQQRSNWPLTFGPGTKVDIK
notes: as for B1
[2]
  binding result: no binding
[3]
  binding result: no binding

B14: EW 9B (antibody, V domains shown)
VH: EVQLVQSGAEVKKPGASVKVSCKASGYTFTSYYMHWVRQAPGQGLEWMGIINPSGGSTSYAQKFQGRVTMTRDTSTSTVYMELSSLRSEDTAVYYCAREDGVVPAANLMISLEDYYYYGMDVWGQGTTVTVSS
VL: EIVLTQSPATLSLSPGERATLSCRASQSVSSYLAWYQQKPGQAPRLLIYDASNRATGIPARFSGSGSGTDFTLTISSLEPEDFAVYYCQQRSNWPLTFGGGTKVDIK
notes: as for B1
[2]
  binding result: no binding
[3]
  binding result: no binding

B15: FD 7D (antibody, V domains shown)
VH: EVQLVESGAEVKKPGESLRISCKGSGYSFTSYWISWVRQMPGKGLEWMGRIDPSDSYTNYSPSFQGHVTISADKSISTAYLQWSSLKASDTAMYYCARHSDCSSTSCYFVDAFDIWGQGTMVTVSS
VL: not shown
notes: as for B1
[2]
  binding result: no binding
[3]
  binding result: no binding

B16: FJ 10B (antibody, V domains shown)
VH: QVQLVQSGAEVKKPGESLRISCKGSGYSFTSYWISWVRQMPGKGLEWMGRIDPSDSYTNYSPSFQGHVTISADKSISTAYLQWSSLKASDTAMYYCARLDPRYGPDYYGMDVWGQGTTVTVSS
VL: AIRMTQSPSSLSASVGDRVTITCRASQSISSYLNWYQQKPGKAPKLLIHAASSLQSGVPSRFSGSGSGTDFTLTMSSLQPEDFATYYCQQSYSTPLTFGGGTKVEIR
notes: as for B1
[1]
  OD450: 1.22 OD450
[2]
  binding result: binds

B17: EZ 7B (antibody, V domains shown)
VH: EVQLVESSPGLVKPSETLSLTCTVSGGSISSYYWSWIRQPPGKGLEWIGYIYYSGSTNYNPSLKSRVTISVDTSKNQFSLKLSSVTAADTAVYYCARRVFGPVLPSKLGGSYWGGGAFDIWGQGTMVTVSS
VL: not shown
notes: as for B1
[5]
  OD450: 1.01 OD450

B18: FI 4A (antibody, V domains shown)
VH: EVQLVESGGGLVKPGGSLRLSCAASGFTFSRFSMNWVRQAPGKGLEWVSSISSSGSYIYFADSVKGRFTISRDNAKNSLYLQMNSLRAEDTAIYYCATYLFGDSHTYWGQGTLVTVSS
VL: QSVLTQPHSVSESPGKTVTISCTGSSGSIASNYVQWYQQRPGSAPTTVIYEDNQRPSGVPDRFSGSIDSSSNSASLTISGLKTEDEADYYCQSYDSSNLHWVFGGGTKLTVL
notes: as for B1
[1]
  OD450: 1.12 OD450
[2]
  binding result: binds

B19: FM 1A (antibody, V domains shown)
VH: EVQLLESGGGVVQPGRSLRLSCAASGFTFSSYGMHWVRQAPGKGLEWVAVIWYDGSNKYYADSVKGRFTISRDNSKNTLYLQMNSLRAEDTAVYYCAREGAVGATRGFDYWGQGTLVTVSS
VL: SYELTQPPSVSVAPGQTARITCGGNNIGSKSVHWYQQKPGQAPVLVVYDDSDRPSGIPERFSGSNSGNTATLTISRVEAGDEADYYCQVWDSSSDQGVFGGGTKLTVL
notes: as for B1
[4]
  OD450: 0.88 OD450

B20: FN 8C (antibody, V domains shown)
VH: QVQLVESGGGVVQPGRSLRLSCAASGFTFSSYGMHWVRQAPGKGLEWVAVISYDGSNKYYADTVKGRFTISRDNSKNTLYLQMNSLRAEDTAVYYCARERTYYDILTGYRHYYGMDVWGQGTTVTVSS
VL: SYELTQPPSVSVAPGQTARITCGGNNIGSKSVHWYQQKPGQAPVLVVYDDSDRPSGIPERFSGSNSGNTATLTISRVEAGDEADYYCQVWDSSSDHWVFGGGTKLTVL
notes: as for B1
[2]
  binding result: no binding
[3]
  binding result: no binding

B21: FG 12C (antibody, V domains shown)
VH: EVQLVESGGGLVQPGRSLRLSCAASGFTFDDYAMHWVRQAPGKGLEWVSGISWNSGSIGYADSVKGRFTISRDNAKNSLYLQMNSLRAEDTALYYCAKDMRVHDYGDYYFDYWGQGTLVTVSS
VL: SYELTQPPSVSVAPGKTARITCGGNNIGSKSVHWYQQKPGQAPVLVIYYDSDRPSGIPERFSGSNSGNTATLTISRVEAGDEADYYCQVWDSSSDHPVFGGGTKLTVL
notes: as for B1
[2]
  binding result: no binding
[3]
  binding result: no binding

B22: EZ 7A (antibody, V domains shown)
VH: EVQLVESGAEVKKPGESLKISCKGSGYSFTSYWIGWVRQMPGKGLEWMGIIYPGDSDTRYSPSFQGQVTISADKSISTAYLQWSSLKASDTAMYYCARGWVYRGFPYYGMDVWGQGTMVTVSS
VL: QSALTQPRSVSGSPGQSVTISCTGTSSDVGGYNYVSWYQQHPGKAPKLMIYDVSKRPSGVPDRFSGSKSGNTASLTISGLQAEDEADYYCCSYAGSYTLVFGGGTKLTVL
notes: as for B1
[1]
  OD450: 1.12 OD450
[2]
  binding result: binds
